Results from patent US20080058263A1 (published 2008).

Tests used:
Experiment in all cases: receptor-Fc IP
[1] = target: T1, VEGFR-1-Fc (UniProt P17948 27-338)
T1 construct: domain: first three Ig domains; expressed in Drosophila S2 cells, purified on Protein A sepharose; also called VEGFR-1-Fc fusion protein; not shown: Fc fragment from the Signal-pIgPlus vector
Outline: (§1)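 Binding of ligand from sample supernatant measured by pentahistidine-antibody immunoprecipitation. IP mix: PBS with 1.5% BSA, 0.06% Tween 20, 3 μg/ml heparin and 400 ng/ml fusion protein, added 1:2 to sample supernatant.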

[2] = target: T2, VEGFR-2-Fc (UniProt P35968 20-322)
T2 construct: domain: first 3 Ig domains; conditioned supernatant of 293T cells; also called VEGFR-2-Fc fusion protein; not shown: Fc fragment of the pIg vector
Outline: as §1

[3] = target: T3, VEGFR-3-Fc (UniProt P35916 25-328)
T3 construct: domain: first three Ig domains; conditioned supernatant of 293T cells; also called VEGFR-3-Fc fusion protein; not shown: Fc fragment of the pIg vector
T3 sequence (looked up): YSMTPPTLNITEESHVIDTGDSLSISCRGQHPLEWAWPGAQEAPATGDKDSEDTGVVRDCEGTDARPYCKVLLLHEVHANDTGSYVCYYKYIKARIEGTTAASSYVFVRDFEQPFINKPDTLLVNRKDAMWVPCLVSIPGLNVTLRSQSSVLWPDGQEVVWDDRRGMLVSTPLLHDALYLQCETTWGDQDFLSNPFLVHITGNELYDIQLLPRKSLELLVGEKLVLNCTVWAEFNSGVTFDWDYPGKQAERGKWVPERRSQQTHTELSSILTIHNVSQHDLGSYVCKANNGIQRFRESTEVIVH
Outline: as §1

Measured: binding result

T1 sequence (P17948 27-338): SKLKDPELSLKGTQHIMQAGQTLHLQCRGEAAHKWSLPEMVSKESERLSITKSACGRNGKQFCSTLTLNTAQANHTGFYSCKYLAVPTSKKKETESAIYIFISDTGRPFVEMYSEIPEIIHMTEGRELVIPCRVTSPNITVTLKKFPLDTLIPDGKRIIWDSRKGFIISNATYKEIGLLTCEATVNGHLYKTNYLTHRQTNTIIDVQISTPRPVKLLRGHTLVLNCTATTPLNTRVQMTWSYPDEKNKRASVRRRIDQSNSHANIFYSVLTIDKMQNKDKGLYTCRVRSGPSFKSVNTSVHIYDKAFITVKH
T2 sequence (P35968 20-322): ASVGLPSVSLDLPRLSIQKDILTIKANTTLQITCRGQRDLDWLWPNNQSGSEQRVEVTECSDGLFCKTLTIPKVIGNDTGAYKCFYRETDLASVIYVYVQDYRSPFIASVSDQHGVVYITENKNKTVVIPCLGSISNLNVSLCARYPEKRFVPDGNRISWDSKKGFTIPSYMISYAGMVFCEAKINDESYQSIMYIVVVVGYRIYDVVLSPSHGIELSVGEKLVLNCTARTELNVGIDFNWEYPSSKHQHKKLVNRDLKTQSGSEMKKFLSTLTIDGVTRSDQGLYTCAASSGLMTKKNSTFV

B1: 32-6 (ligand)
chain: GQNHHEVVKSIDNEWRKTQCMPIETLVDIFQEFGVATNTFFKPPCVSVYRCGGCCNDEGLECMNTSTSYLSKTLFEIKPHQGQHIGEMSFANHTSCRCMSKLD
no binding: all assays above

B2: 32-8 (ligand)
chain: GQNHHEVVKSIDNEWRKTQCMPIETLVDIFQEFGVATNTFFKPPCVSVYRCGGCCNSEGLQCMNTSTSYLSKTLFEIKPHQGQHIGEMSFANHTSCRCMSKLD
no binding: all assays above

B3: 24-2 (ligand)
chain: AHYNTEILKSIDNEWRKTQCMPREVCIDVGKEFGVATNTFFKPSCVPLMRCGGCCNDEGLECMNTSTSYLSKTLFEIKPHQGQHIGEMSFLQHNKCECRPKKD
no binding: all assays above

B4: 24-4 (ligand)
chain: AHYNTEILKSIDNEWRKTQCMPREVCIDVGKEFGVATNTFFKPSCVPLMRCGGCCNSEGLQCMNTSTSYLSKTLFEIKPHQGQHIGEMSFLQHNKCECRPKKD
no binding: all assays above

B5: 24-8 (ligand)
chain: AHYNTEILKSIDNEWRKTQCMPREVCIDVGKEFGVATNTFFKPSCVPLMRCGGCCNSEGLQCMNTSTSYLSKTLFEIKPHQGQHIGEMSFANHTSCRCMSKLD
no binding: all assays above

B6: 24-11 (ligand)
chain: AHYNTEILKSIDNEWRKTQCMPREVCIDVGKEFGVATNTFFKPSCVPLMRCGGCCNSEGLQCVPTEESNITMQIMRITVPLSQGPKPVTISFLQHNKCECRPKKD
no binding: all assays above

B7: 24-15 (ligand)
chain: AHYNTEILKSIDNEWRKTQCMPREVCIDVGKEFGVATNTFFKPSCVPLMRCGGCCNSEGLQCVPTEESNITMQIMRITVPLSQGPKPVTISFANHTSCRCMSKLD
no binding: all assays above

B8: 24-13 (ligand)
chain: AHYNTEILKSIDNEWRKTQCMPREVCIDVGKEFGVATNTFFKPSCVPLMRCGGCCNDEGLECVPTEESNITMQIMRITVPLSQGPKPVTISFANHTSCRCMSKLD
no binding: all assays above

B9: 64-12 (ligand)
chain: GQNHHEVVKFMDVYQRSYCHPREVCIDVGKEFGVATNTFFKPSCVPLMRCGGCCNSEGLQCMNTSTSYLSKTLFEITVPLSQGPKPVTISFLQHNKCECRPKKD
no binding: all assays above

B10: 51-2 (ligand)
chain: AHYNTEILKSIDNEWRKTQCMPIETLVDIFQEYPDEIEYIFKPSCVPLMRCGGCCNDEGLECMNTSTSYLSKTLFEIKPHQGQHIGEMSFLQHNKCECRPKKD
no binding: all assays above

B11: 51-4 (ligand)
chain: AHYNTEILKSIDNEWRKTQCMPIETLVDIFQEYPDEIEYIFKPSCVPLMRCGGCCNSEGLQCMNTSTSYLSKTLFEIKPHQGQHIGEMSFLQHNKCECRPKKD
no binding: all assays above

B12: 83-6 (ligand)
chain: AHYNTEILKFMDVYQRSYCHPIETLVDIFQEYPDEIEYIFKPPCVSVYRCGGCCNDEGLECMNTSTSYLSKTLFEIKPHQGQHIGEMSFANHTSCRCMSKLD
no binding: all assays above

B13: 24-12 (ligand)
chain: AHYNTEILKSIDNEWRKTQCMPREVCIDVGKEFGVATNTFFKPSCVPLMRCGGCCNSEGLQCMNTSTSYLSKTLFEITVPLSQGPKPVTISFLQHNKCECRPKKD
no binding: all assays above

B14: 21-12 (ligand)
chain: AHYNTEILKSIDNEWRKTQCMPREVCIDVGKEYPDEIEYIFKPSCVPLMRCGGCCNSEGLQCMNTSTSYLSKTLFEITVPLSQGPKPVTISFLQHNKCECRPKKD
no binding: all assays above

B15: 32-1 (ligand)
chain: GQNHHEVVKSIDNEWRKTQCMPIETLVDIFQEFGVATNTFFKPPCVSVYRCGGCCNDEGLECVPTEESNITMQIMRIKPHQGQHIGEMSFLQHNKCECRPKKD
no binding: all assays above

B16: 32-3 (ligand)
chain: GQNHHEVVKSIDNEWRKTQCMPIETLVDIFQEFGVATNTFFKPPCVSVYRCGGCCNSEGLQCVPTEESNITMQIMRIKPHQGQHIGEMSFLQHNKCECRPKKD
no binding: all assays above

B17: 32-5 (ligand)
chain: GQNHHEVVKSIDNEWRKTQCMPIETLVDIFQEFGVATNTFFKPPCVSVYRCGGCCNDEGLECVPTEESNITMQIMRIKPHQGQHIGEMSFANHTSCRCMSKLD
no binding: all assays above

B18: 32-7 (ligand)
chain: GQNHHEVVKSIDNEWRKTQCMPIETLVDIFQEFGVATNTFFKPPCVSVYRCGGCCNSEGLQCVPTEESNITMQIMRIKPHQGQHIGEMSFANHTSCRCMSKLD
no binding: all assays above

B19: 64-11 (ligand)
chain: GQNHHEVVKFMDVYQRSYCHPREVCIDVGKEFGVATNTFFKPSCVPLMRCGGCCNSEGLQCVPTEESNITMQIMRITVPLSQGPKPVTISFLQHNKCECRPKKD
no binding: all assays above

B20: 32-13 (ligand)
chain: GQNHHEVVKSIDNEWRKTQCMPIETLVDIFQEFGVATNTFFKPPCVSVYRCGGCCNDEGLECVPTEESNITMQIMRITVPLSQGPKPVTISFANHTSCRCMSKLD
no binding: all assays above

B21: 21-13 (ligand)
chain: AHYNTEILKSIDNEWRKTQCMPREVCIDVGKEYPDEIEYIFKPSCVPLMRCGGCCNDEGLECVPTEESNITMQIMRITVPLSQGPKPVTISFANHTSCRCMSKLD
no binding: all assays above

B22: 51-1 (ligand)
chain: AHYNTEILKSIDNEWRKTQCMPIETLVDIFQEYPDEIEYIFKPSCVPLMRCGGCCNDEGLECVPTEESNITMQIMRIKPHQGQHIGEMSFLQHNKCECRPKKD
no binding: all assays above

B23: 51-3 (ligand)
chain: AHYNTEILKSIDNEWRKTQCMPIETLVDIFQEYPDEIEYIFKPSCVPLMRCGGCCNSEGLQCVPTEESNITMQIMRIKPHQGQHIGEMSFLQHNKCECRPKKD
no binding: all assays above
